Consider four molecules from US20240343803A1 (SHANDONG SIMCERE BIOPHARMACEUTICAL, published 2024).

The target of experiment [1] is T1, human PVRIG-his (AcroBiosystems, Cat NO. PVG-H52H4) (human, UniProt Q6DKI7 41-171, limits assumed).
T1 construct: treated as the same protein; also called human PVRIG-His protein; Human PVRIG-His, Acro C227P1-9ARF1-T4
T1 sequence (looked up): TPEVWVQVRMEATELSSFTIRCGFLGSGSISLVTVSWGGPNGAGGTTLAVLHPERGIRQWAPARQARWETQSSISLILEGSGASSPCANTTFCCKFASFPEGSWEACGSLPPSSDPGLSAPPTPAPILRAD
The experiment is described as follows: competition ELISA on coated human PVRIG-his; blocked ligand human PVRL2-mFc. The method, then: The ELISA plate was pre-coated with 100 μL/well of 0.5 μg/mL human PVRIG-his protein (AcroBiosystems, Cat NO. PVG-H52H4). The tested anti-PVRIG antibodies were diluted from the highest concentration of 16 nM (two-fold concentration). The diluted antibodies were mixed with 18 ng/ml human PVRL2-mFc (AcroBiosystems, Cat NO. CD2-H5257) in equal volume, added into the plate (100 μL/well), and incubated with shaking at room temperature for 2.0 hours. […] A HRP substrate, TMB (Thermo, Cat NO. 34029) was added into wells after washing the plate again for color development. After adding a termination solution to terminate the reaction, the absorbance value was read by a microplate reader (MD i3×). An inhibiting curve was drawn with concentration of antibodies as the abscissa and the corresponding OD value as the ordinate. The IC50 value was calculated by using a Four Parameter Logistic Fit (GraphPadPrism9). The smaller the IC50 value, the stronger the ability of the antibodies inhibits the binding between PVRIG and PVRL2. The positive and negative controls are the same as in Example 8.
The methods refer to Example 11. The inhibiting activity of the humanized antibodies was normalized to the corresponding parental antibodies. If the percentage value is higher than 100%, the inhibiting effect of humanized antibodies is better than that of parental antibodies.
Background: An ELISA detects its analyte on a solid surface through an enzyme-linked reagent.

In experiment [2] the target is T2, full-length cynomolgus monkey TIGIT on CHO-K1 cells (CHO-K1 cynomolgus monkey TIGIT) (cynomolgus monkey).
T2 construct: NCBI XP_015300911.1; also called cynomolgus monkey TIGIT cells
T2 sequence (chain, as listed by the source limits assumed): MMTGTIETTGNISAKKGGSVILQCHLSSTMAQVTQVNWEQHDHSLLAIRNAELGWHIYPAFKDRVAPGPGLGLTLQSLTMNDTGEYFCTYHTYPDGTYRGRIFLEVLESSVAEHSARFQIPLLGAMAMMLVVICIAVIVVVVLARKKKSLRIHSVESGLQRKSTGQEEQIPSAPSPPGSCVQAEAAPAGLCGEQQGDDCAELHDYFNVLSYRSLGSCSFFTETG
The experiment is described as follows: FACS, CHO-K1 cynomolgus monkey TIGIT cells. The method, then:
(§1) The collected cells were washed once with PBS (Hyclone, Cat NO. SH30256), resuspended to 2×10⁵/50 μL with 1% BSA-PBS. The antibodies were diluted to 80 nM with 1% BSA-PBS (diluted by 3-fold serial dilution for 12 concentration points). The 50 μL cells were then mixed with 50 μL diluted antibodies, and then incubated at 4° C. for 60 minutes. […] After washing twice with PBS, the cell samples were resuspended with 1% BSA-PBS, 100 μL/well and then analyzed by flow cytometry (BD, Canto II).
Background: Flow cytometry measures light scatter and fluorescence of single cells or particles in a stream.

Experiment [3] addresses T3, full-length human TIGIT on CHO-K1 cells (CHO-K1 human TIGIT) (human, UniProt Q495A1 22-244).
T3 construct: NCBI XP_024309156.1; entry includes the signal peptide; also called high expression strain 1D2; medium expression strain 2D10
T3 sequence: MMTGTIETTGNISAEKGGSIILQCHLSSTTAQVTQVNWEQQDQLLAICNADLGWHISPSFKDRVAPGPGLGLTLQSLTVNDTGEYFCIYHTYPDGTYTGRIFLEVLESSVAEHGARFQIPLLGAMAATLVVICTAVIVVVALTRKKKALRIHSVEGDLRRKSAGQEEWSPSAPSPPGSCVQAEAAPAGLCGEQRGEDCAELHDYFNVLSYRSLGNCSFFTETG
The experiment is described as follows: FACS, CHO-K1 human TIGIT low expression strain. As for the experimental part:
as §1

In experiment [4] the target is T4, human TIGIT ECD-his (fusion protein of extracellular domain of human TIGIT and His-tag) (human).
T4 construct: entry includes the signal peptide, limits not readable here
T4 chain: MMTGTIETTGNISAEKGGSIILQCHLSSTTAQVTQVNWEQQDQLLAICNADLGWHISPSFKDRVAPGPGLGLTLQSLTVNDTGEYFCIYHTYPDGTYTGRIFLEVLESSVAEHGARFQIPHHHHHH
The experiment is described as follows: BIAcore kinetics. For orientation: SPR reads the build-up and loss of mass on a sensor chip optically.

Experiment [5] addresses T3, full-length human TIGIT on CHO-K1 cells …. The experiment is described as follows: FACS, high expression strain. As for the experimental part:
as §1, with “CAT #SH30256),” for “Cat NO. SH30256),”, “II). […] [0298] (c) The effect of anti-TIGIT chimeric antibodies blocking the interaction between Bio-CD155-His and CHO-K1 human TIGIT high expression cell strains detected by FACS” for “II).”

The target in experiment [6] is T1, human PVRIG-his (AcroBiosystems, Cat …). The experiment is described as follows: ELISA, coated human PVRIG-his.
In experiment [7] the target is T5, Fusion protein of extracellular domain of human TIGIT and His-tag (human TIGIT ECD-his) (human).
T5 chain: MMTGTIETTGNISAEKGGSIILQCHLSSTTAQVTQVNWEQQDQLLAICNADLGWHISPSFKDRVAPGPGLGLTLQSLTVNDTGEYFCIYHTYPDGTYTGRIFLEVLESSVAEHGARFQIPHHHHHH
The experiment is described as follows: BIAcore; KD ratio to TIGIT-CHI-006.

B1: PVRIG-A105 (VHH)
VHH: EVQLVESGGGLVQAGGSLRLSCAASGRTFDRHTMTWFRQAPGKEREFVATASRIPGDTYYSHSVKGRFTISRDNAKNTVYLQLNNLKPEDTAVYYCAATSAYCSEVDCYEKGSWYDNWGQGIQVTVSS
notes: tested as VHH-hinge-CH2-CH3 (human IgG1-Fc); not shown: human IgG1 hinge-CH2-CH3
As to B1, in experiment [1], the “IC50 (read off the curve)” value is around 0.7 nM.

B2: RG6058-hIgG1 (antibody, V domains shown)
VH: EVQLQQSGPGLVKPSQTLSLTCAISGDSVSSNSAAWNWIRQSPSRGLEWLGKTYYRFKWYSDYAVSVKGRITINPDTSKNQFSLQLNSVTPEDTAVFYCTRESTTYDLLAGPFDYWGQGTLVTVSS
VL: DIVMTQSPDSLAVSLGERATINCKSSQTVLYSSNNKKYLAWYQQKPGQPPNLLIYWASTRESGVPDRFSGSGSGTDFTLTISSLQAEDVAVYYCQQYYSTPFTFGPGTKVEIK
notes: human IgG1 format by its name; also called Roche RG6058; control antibody RG6058
In the case of B2, in experiment [2], the EC50 (read off the curve) – broadly, the midpoint of the concentration-response curve – was around 1 nM. Besides, in experiment [3], the “EC50 (read off the curve)” value was around 0.4 nM. In addition, in experiment [4], binding was put at a Kd of 0.163 nM; the koff (usually the rate constant with which the complex falls apart) amounted to 0.000147 s⁻¹; the kon (in general, a measure of how fast the partners come together) turned out to be 903000 M⁻¹ s⁻¹. For the same molecule, the EC50 (as a rule, the concentration at which the effect is half-maximal) in experiment [5] is 0.673 nM.

B3: SRF813-hIgG1 (antibody, V domains shown)
VH: QVQLVQSGAEVKKPGSSVKVSCKASGGTFSSAAISWVRQAPGQGLEWMGNIIPIVGIANYAQKFQGRVTITADESTSTAYMELSSLRSEDTAVYYCARDTGRGYTRHFWFDPWGQGTLVTVSS
VL: DIQMTQSPSSLSASVGDRVTITCRASQSISSYLNWYQQKPGKAPKLLIYAASSLQSGVPSRFSGSGSGTDFTLTISSLQPEDFATYYCQQSDILYTFGGGTKVEIK
notes: human IgG1 format by its name
Consider B3, for which, in experiment [6], the “EC50 (read off the curve)” value was around 0.05 nM.

B4: TIGIT-006-H5L3 (antibody, V domains shown)
VH: EVQLQESGPGLVKPSETLSLTCAVSGYSMTSDYWNWIRQPPGKKLEYIGYISYSGRTYYNPSLKSRVTISRDTSKNQFSLKLSSVTAADTAVYYCARGDYSNYGGAMYDWGQGTTVTVSS
VL: DIVMTQSPDSLAVSLGERATINCRASQGVSTTIAWYQQKPGQSPKLLIYSASYRYTGVPRFSGSGSGTDFTLTISSLQAEDVAVYYCQQYYSSPFTFGGGTKVEIK
notes: Humanized anti-TIGIT antibody
Regarding B4, the “Fold change vs chimeric antibodies (KD)” value in experiment [7] came out at 0.83 fold.
